For experiment [1], the target named is …-HLA-A*02:01 single-chain trimer displayed on yeast (human). Nature of the experiment: flow cytometry of yeast displaying [..]-HLA-A*02:01, 400 nM DMF5 TCR tetramerized on SA-647 against anti-HA; the panel with SA-647 alone gives 10.80 in the same quadrant.
Experiment [2] has the same target. Nature of the experiment: flow cytometry histogram of yeast displaying … with HLA-A*02:01, '+' (MA2.1 then secondary antibody); the row '-' gives 5.574 in the same gate. (In general: In flow cytometry, cells or beads pass a laser one at a time.)
The target is the same in experiment [3]. Nature of the experiment: flow cytometry histogram of yeast displaying … with HLA-A*02:01, '+' (MA2.1 then secondary antibody); the row '-' gives 6.542 in the same gate.
For experiment [4] the target is unchanged. Nature of the experiment: flow cytometry histogram of yeast displaying … with HLA-A*02:01, '+' (MA2.1 then secondary antibody); the row '-' gives 6.578 in the same gate.
The target is the same in experiment [5]. Nature of the experiment: flow cytometry histogram of yeast displaying … with HLA-A*02:01, '+' (MA2.1 then secondary antibody); the row '-' gives 6.825 in the same gate.
Experiment [6] shares this target. Nature of the experiment: flow cytometry histogram of yeast displaying … with HLA-A*02:01, '+' (MA2.1 then secondary antibody); the row '-' gives 7.270 in the same gate.
The target is the same in experiment [7]. Nature of the experiment: flow cytometry histogram of yeast displaying … with HLA-A*02:01, '+' (MA2.1 then secondary antibody); the row '-' gives 9.655 in the same gate.

We go through two substances from US20250042969A1, “ANTIGEN DISCOVERY FOR T CELL RECEPTORS ISOLATED FROM PATIENT TUMORS RECOGNIZING WILD-TYPE ANTIGENS AND POTENT PEPTIDE MIMOTOPES” (The Board of Trustees of the Leland Stanford Junior …, priority 2017, published 2025).

With “DMF5 TCR, soluble, multimerized on streptavidin”, the percent of yeast SA-647+ HA-488+ (upper right quadrant) in experiment [1] was 55.8.
Consider MA2.1 antibody, for which the percent of yeast in the MA2.1-positive gate in experiment [2] is 69; in experiment [3], 55.5; in experiment [4], 74.2; in experiment [5], 74.2; in experiment [6] it was 68.6; in experiment [7], 73.7.
